In patent US20020028202A1 (Biogen, published 2002):
Numbering of substitutions follows the chain as printed.

Tests used:
Assay in all cases: staining of transfected COS-7 cells, FACS
[1] = target: T1, human gc chain mutant, LEH replaced by Ala (Domain 2 Loop BC), myc-tagged, on COS-7 cells (human, UniProt P31785 23-369)
T1 construct: whole, on cells; not shown: 9 amino acid myc tag at the 5' end of the construct
T1 sequence (looked up): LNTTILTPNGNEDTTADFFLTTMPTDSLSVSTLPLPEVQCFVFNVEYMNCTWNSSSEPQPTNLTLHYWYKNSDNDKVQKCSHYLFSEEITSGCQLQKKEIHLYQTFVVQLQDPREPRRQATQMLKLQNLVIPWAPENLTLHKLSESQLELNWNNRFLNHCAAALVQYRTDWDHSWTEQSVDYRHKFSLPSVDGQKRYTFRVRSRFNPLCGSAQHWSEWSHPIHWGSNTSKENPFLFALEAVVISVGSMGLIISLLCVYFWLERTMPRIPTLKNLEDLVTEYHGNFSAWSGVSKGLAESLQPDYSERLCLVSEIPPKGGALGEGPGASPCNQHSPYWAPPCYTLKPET

[2] = target: T2, human gc chain mutant, PL replaced by Ala (Domain 2 Loop FQ), myc-tagged, on COS-7 cells (human, UniProt P31785 23-369)
T2 construct: whole, on cells; not shown: 9 amino acid myc tag at the 5' end of the construct
T2 sequence (looked up): T1 sequence (looked up) with A161L, A162E, A163H, P207A, L208A

[3] = target: T3, human gc chain mutant, RFL replaced by Ala (Domain 2 Loop BC), myc-tagged, on COS-7 cells (human, UniProt P31785 23-369)
T3 construct: whole, on cells; not shown: 9 amino acid myc tag at the 5' end of the construct
T3 sequence (looked up): T1 sequence (looked up) with R155A, F156A, L157A, A161L, A162E, A163H

[4] = target: T4, human gc chain mutant, NLV replaced by Ala (interdomain residues), myc-tagged, on COS-7 cells (human, UniProt P31785 23-369)
T4 construct: whole, on cells; not shown: 9 amino acid myc tag at the 5' end of the construct
T4 sequence (looked up): T1 sequence (looked up) with N128A, L129A, V130A, A161L, A162E, A163H

B1: CP.B8 monoclonal antibody (murine anti-human gc chain, hybridoma ATCC HB-12107) (antibody, V domains shown)
VH: LQESGPGLVAPSQSLSITCTVSGFSLTSYGVHWVRQPPGKGLEWLGVIWAGGSTNYNSALMSRLNINRDNSKSQIFLKMNSLQTDDTAIYYCAREGSTVDSMDYWGQGTTVT
VL: DIVMTQSHKFMSTSVGDSITITCKASQDVTTAVAWYQQKPGQSPKLLIYWASTRHTGVPDRFTGSGSGTDYTLTISSVQAEDLALYYCQQHYITPWTFGGGTKLEI
notes: Used unconjugated and biotin-conjugated; also called CP.B8 mAb; mAb CP.B8
- % binding to mutant gc chain/wildtype gc chain [1]: 0%
- % binding to mutant gc chain/wildtype gc chain [2]: 86%
- % binding to mutant gc chain/wildtype gc chain [3]: 89%
- % binding to mutant gc chain/wildtype gc chain [4]: 0%
